Results taken from PMC6158172, “A bidentate Polycomb Repressive-Deubiquitinase complex is required for efficient activity on nucleosomes” (Nature Communications, 2018).

B2: Calypso^43–404 (wild type), as in the Calypso^43–404–ASX^207–340 complex (enzyme, Drosophila melanogaster, UniProt Q7K5N4 43-404, looked up)
chain: ADGWLELESDPGLFTLLLKDFGCHDVQVEEVYDLQKPIESPYGFIFLFRWIEERRARRKIVETTAEIFVKDEEAISSIFFAQQVVPNSCATHALLSVLLNCNENNLQLGDTLSRLKTHTKGMSPENKGLAIGNTPELACAHNSHAMPQARRRLERTGAGVSSCRFTGEAFHFVSFVPINGQLFELDGLKPYPMNHGGWEDSEDWTDKFRRVMAERLGIATGEQDIRFNLMAVVPDRRIAITHKLKMLRTNQAIVSGTLQKLLKADEQGESGNGDSQRPDTPTTLLEPSAFTARDLQSLLKNLDTEIAINEQHLADENDRRHMFKVDASRRTHNYDKFICTFLSMLAHQGVLGELVSQHLLPS
notes: Calypso, deubiquitinase of the Drosophila PR-DUB, residues 43-404 (UCH domain, coiled-coil hairpin, ULD; lacks the C-terminal positively charged tail 405-471); Always handled together with ASX 207-340, with which it was co-expressed; two copies per 2:2 complex at high concentration; also called WT^(no tail); Calypso^(no tail); source: E. coli BL21 (DE3), co-expressed with ASX, purified …

How the values were obtained:
[1] = target: B2; test: AUC; sedimentation velocity, c(s) analysis, 40 µM complex, 20 °C, 20 mM HEPES pH 7.8, 100 mM NaCl, 0.8 mM TCEP, 50,000 r.p.m.; settings: both partners purified
[2] = target: T1, Calypso(L340A)^43–404, as in the Calypso(L340A)–ASX complex (Drosophila melanogaster, UniProt Q7K5N4 43-404, L340A); test: SEC-MALLS; Superdex 200 5/150 GL Increase, 20 mM HEPES pH 7.5, 100 mM NaCl; wild type injected at 90 and 45 μM, wild type and mutants at ~50 μM; settings: both partners purified
T1 construct: Calypso, Drosophila, residues 43-404, L340A; Handled together with ASX 207-340; source: E. coli BL21 (DE3), co-expressed with ASX, purified (Ni-NTA, 3C cleavage, HiTrap Q, Superdex 200); not shown: His6, N-terminal, cleaved
T1 sequence (looked up): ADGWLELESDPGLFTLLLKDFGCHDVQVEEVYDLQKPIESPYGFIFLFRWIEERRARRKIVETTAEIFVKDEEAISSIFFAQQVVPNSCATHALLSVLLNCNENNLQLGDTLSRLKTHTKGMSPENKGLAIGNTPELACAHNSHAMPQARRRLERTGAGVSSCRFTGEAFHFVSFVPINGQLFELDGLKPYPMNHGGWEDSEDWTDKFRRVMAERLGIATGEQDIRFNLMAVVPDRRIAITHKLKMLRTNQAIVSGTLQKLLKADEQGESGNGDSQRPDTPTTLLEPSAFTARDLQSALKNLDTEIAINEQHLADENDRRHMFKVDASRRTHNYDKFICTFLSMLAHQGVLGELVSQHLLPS

[3] = target: T2, Calypso(N292R)^43–404, as in the Calypso(N292R)–ASX complex (Drosophila melanogaster, UniProt Q7K5N4 43-404, N292R); test: as above; settings: both partners purified
T2 construct: Calypso, Drosophila, residues 43-404, N292R; Handled together with ASX 207-340; source: E. coli BL21 (DE3), co-expressed with ASX, purified (Ni-NTA, 3C cleavage, HiTrap Q, Superdex 200); not shown: His6, N-terminal, cleaved
T2 sequence (looked up): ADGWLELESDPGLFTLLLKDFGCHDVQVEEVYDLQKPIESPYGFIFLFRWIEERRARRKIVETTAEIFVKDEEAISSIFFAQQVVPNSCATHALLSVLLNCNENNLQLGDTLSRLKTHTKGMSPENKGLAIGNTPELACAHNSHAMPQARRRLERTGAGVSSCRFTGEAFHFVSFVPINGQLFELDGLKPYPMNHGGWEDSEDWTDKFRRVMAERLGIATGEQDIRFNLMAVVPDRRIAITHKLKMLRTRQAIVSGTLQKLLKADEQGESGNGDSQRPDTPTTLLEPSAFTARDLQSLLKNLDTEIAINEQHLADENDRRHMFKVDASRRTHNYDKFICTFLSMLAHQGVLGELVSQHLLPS

[4] = target: the molecule itself; test: AUC; sedimentation velocity, c(s) analysis, 40 µM complex, 20 °C, 20 mM HEPES pH 7.8, 100 mM NaCl, 0.8 mM TCEP, 50,000 r.p.m.
[5] = target: the molecule itself; test: SEC-MALLS; Superdex 200 5/150 GL Increase, 20 mM HEPES pH 7.5, 100 mM NaCl; wild type injected at 90 and 45 μM, wild type and mutants at ~50 μM

B1: ASX^207–340 (Deubad domain of Additional Sex Combs), as in the Calypso^43–404–ASX^207–340 complex (domain or fragment, Drosophila melanogaster, UniProt Q9V727 207-340, looked up)
chain: DGKIDLETPDSILASTNLRALLNKQTFSLLPPLYQYNLIQLLPSVDREASESEAIRLSASCLNNEFFARACLEWRERLSEGEFTPENQLKLKTEAEREKNKLDPWKLKHFEPFWGEKNSRG
notes: Additional Sex Combs (ASX), Drosophila, Deubad domain, residues 207-340 with residues 258-270 omitted; Second open reading frame of the co-expression construct; also called ASX Deubad; source: E. coli BL21 (DE3), co-expressed with His6-Calypso, purified (Ni-NTA, HiTrap Q, Superdex 200)
[1]
  stoichiometry N: 1 ASX per Calypso (2:2)
[2]
  stoichiometry N: 1 ASX per Calypso (1:1)
[3]
  stoichiometry N: 1 ASX per Calypso (1:1)

## B2
[4]
  stoichiometry N: 2

B3: Calypso(M288R)^43–404, as in the Calypso(M288R)–ASX complex (enzyme, Drosophila melanogaster, UniProt Q7K5N4 43-404, looked up)
chain: ADGWLELESDPGLFTLLLKDFGCHDVQVEEVYDLQKPIESPYGFIFLFRWIEERRARRKIVETTAEIFVKDEEAISSIFFAQQVVPNSCATHALLSVLLNCNENNLQLGDTLSRLKTHTKGMSPENKGLAIGNTPELACAHNSHAMPQARRRLERTGAGVSSCRFTGEAFHFVSFVPINGQLFELDGLKPYPMNHGGWEDSEDWTDKFRRVMAERLGIATGEQDIRFNLMAVVPDRRIAITHKLKRLRTNQAIVSGTLQKLLKADEQGESGNGDSQRPDTPTTLLEPSAFTARDLQSLLKNLDTEIAINEQHLADENDRRHMFKVDASRRTHNYDKFICTFLSMLAHQGVLGELVSQHLLPS
notes: Calypso, Drosophila, residues 43-404, M288R; Handled together with ASX 207-340; source: E. coli BL21 (DE3), co-expressed with ASX, purified (Ni-NTA, 3C cleavage, HiTrap Q, Superdex 200); not shown: His6, N-terminal, cleaved
[5]
  binding result: binds
